From publication PMC9798254

System: N[C@H](COP(=O)(O)O)Cc1c[nH]cn1
Test: purified protein
Conditions: 100 mM Tris/HCl pH 7.8, 5 mM MgCl2, 25°C

Substance: ecHisB‐N (Escherichia coli K-12)
- Km: 48 ± 3 µM
- kcat: 2.8 ± 0.1 s⁻¹
- kcat/Km: 58000 M⁻¹ s⁻¹
